Patent US20080247944A1 (published 2008)

Experiments:
[1] = target: T1, IRTA-3, full length transmembrane form with N-terminal myc tag, on transfected CHO cells (human, UniProt Q96P31 18-734); assay: flow cytometry on CHO cells transfected with myc-tagged IRTA-3; PE-labeled anti-human IgG
T1 construct: also called CHO cells transfected with IRTA-3; human IRTA-3; not shown: myc tag at the N-terminus
T1 sequence: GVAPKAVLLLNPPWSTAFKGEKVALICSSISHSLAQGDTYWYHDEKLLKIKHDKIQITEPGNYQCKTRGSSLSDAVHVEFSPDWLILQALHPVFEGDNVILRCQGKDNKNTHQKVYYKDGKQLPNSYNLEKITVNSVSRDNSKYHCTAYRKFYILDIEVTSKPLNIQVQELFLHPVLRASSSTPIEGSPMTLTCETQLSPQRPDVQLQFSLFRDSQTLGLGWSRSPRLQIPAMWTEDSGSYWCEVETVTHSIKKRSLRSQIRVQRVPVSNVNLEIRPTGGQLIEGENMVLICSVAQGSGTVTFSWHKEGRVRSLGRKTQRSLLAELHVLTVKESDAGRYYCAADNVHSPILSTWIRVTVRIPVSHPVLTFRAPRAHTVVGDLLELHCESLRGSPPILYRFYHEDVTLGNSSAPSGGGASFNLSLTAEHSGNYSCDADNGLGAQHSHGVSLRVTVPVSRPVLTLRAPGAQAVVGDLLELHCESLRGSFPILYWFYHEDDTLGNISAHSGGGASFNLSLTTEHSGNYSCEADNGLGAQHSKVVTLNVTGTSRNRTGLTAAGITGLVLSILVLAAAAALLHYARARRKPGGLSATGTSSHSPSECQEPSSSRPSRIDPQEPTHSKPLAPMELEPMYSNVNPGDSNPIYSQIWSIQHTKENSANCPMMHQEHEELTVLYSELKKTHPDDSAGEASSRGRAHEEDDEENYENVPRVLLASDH
Source text: (§1) Chinese hamster ovary (CHO) cell lines that express either the IRTA-2, IRTA-3 or IRTA-4 protein at the cell surface were developed and used to determine the specificity of the IRTA-2 monoclonal antibodies by flow cytometry. CHO cells were transfected with expression plasmids containing full length cDNA encoding transmembrane forms of IRTA-2, IRTA-3, or IRTA-4. In addition, the transfected proteins contained a myc tag at the N-terminus for detection by anti-myc antibody. Binding of the two anti-IRTA-2 monoclonal antibodies was assessed by incubating the transfected cells with each of the IRTA-2 Abs at a concentration of 10 μg/ml. The cells were washed and binding was detected with a phycoerythrin-labeled anti-human IgG Ab. A murine anti-myc Ab followed by labeled anti-murine IgG was used as the positive control. Secondary antibody alone was used as a negative control. The results are depicted in FIGS. 7A-C. The IRTA-2 monoclonal antibodies 9D12 and 8A1 bound to the CHO line transfected with IRTA-2 but not to CHO lines expressing IRTA-3 or -4, as measured by the mean fluorescent intensity (MFI) of staining.

[2] = target: T2, IRTA-4, full length transmembrane form with N-terminal myc tag, on transfected CHO cells (human, UniProt Q96LA5 20-508); assay: flow cytometry on CHO cells transfected with myc-tagged IRTA-4; PE-labeled anti-human IgG
T2 construct: also called CHO cells transfected with IRTA-4; human IRTA-4; not shown: myc tag at the N-terminus
T2 sequence: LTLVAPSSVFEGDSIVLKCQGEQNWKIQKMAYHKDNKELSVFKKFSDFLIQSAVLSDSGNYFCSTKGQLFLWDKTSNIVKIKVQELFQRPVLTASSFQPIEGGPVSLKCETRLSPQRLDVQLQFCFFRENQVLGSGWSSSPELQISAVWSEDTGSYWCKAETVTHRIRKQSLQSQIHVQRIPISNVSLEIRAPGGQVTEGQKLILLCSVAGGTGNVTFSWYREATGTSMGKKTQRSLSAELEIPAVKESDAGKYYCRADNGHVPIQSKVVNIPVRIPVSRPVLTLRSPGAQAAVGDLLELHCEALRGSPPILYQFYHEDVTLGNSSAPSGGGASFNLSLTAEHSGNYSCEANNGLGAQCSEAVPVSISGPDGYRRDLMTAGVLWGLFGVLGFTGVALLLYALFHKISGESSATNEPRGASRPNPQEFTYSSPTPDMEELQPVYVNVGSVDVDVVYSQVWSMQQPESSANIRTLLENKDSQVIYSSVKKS
Source text: as §1

[3] = target: T3, IRTA-2-Fc antigen (fusion protein composed of the extracellular domain of the IRTA-2 linked to the Fc portion … (human, UniProt Q96RD9 16-851)); assay: Biacore SPR, antibody captured by anti-human IgG on CM5 chip, IRTA-2-Fc flowed at 50-400 nM, 1:1 Langmuir fit
T3 construct: not shown: Fc portion of human IgG1
T3 chain: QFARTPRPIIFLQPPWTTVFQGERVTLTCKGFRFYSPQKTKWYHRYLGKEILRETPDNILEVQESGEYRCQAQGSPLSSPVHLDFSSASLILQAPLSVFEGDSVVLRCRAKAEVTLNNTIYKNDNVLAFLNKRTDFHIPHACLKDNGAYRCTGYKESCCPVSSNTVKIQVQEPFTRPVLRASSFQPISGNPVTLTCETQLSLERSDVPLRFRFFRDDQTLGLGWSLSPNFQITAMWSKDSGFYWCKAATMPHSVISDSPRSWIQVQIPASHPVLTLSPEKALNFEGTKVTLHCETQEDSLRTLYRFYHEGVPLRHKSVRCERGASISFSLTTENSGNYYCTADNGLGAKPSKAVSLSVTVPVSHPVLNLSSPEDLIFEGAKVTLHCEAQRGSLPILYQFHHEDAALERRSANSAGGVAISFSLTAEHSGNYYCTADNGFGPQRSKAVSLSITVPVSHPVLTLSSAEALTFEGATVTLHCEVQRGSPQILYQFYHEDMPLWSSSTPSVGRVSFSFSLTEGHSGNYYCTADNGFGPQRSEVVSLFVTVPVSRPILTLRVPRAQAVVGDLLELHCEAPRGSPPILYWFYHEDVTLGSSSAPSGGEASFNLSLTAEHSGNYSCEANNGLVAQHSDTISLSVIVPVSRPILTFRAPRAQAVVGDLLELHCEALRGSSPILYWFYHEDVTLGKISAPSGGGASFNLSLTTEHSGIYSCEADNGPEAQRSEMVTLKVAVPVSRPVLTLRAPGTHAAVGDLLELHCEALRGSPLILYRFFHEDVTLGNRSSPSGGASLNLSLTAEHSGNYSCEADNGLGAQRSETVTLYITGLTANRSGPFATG
Procedure: Anti-IRTA-2 antibodies were characterized for affinities and binding kinetics by Biacore analysis (Biacore AB, Uppsala, Sweden). Purified anti-IRTA-2 monoclonal antibodies were captured by anti-human IgG antibody covalently linked to a CM5 chip (carboxy methyl dextran coated chip) via primary amines, using standard amine coupling chemistry and kit provided by Biacore. Binding was measured by flowing the IRTA-2-Fc antigen (a fusion protein composed of the extracellular domain of the IRTA-2 linked to the Fc portion of human IgG1) in HBS EP buffer (provided by Biacore AB) at concentrations of 400, 300, 200, 100, and 50 nM at a flow rate of 12 μl/min. The antigen-antibody association kinetics was followed for either 20 minutes (for 8A1) or 5 minutes (for 9D12) and the dissociation kinetics was followed for ether 10 minutes (for 8A1) or 5 minutes (for 9D12). The association and dissociation curves were fit to a 1:1 Langmuir binding model using BIAevaluation software (Biacore AB).

[4] = target: T4, IRTA-2, full length transmembrane form with N-terminal myc tag, on transfected CHO cells (human, UniProt Q96RD9 16-977); assay: flow cytometry on CHO cells transfected with myc-tagged IRTA-2; antibody at 10 µg/ml; PE-labeled anti-human IgG
T4 construct: also called CHO cells transfected with IRTA-2; human IRTA-2; not shown: myc tag at the N-terminus
T4 chain: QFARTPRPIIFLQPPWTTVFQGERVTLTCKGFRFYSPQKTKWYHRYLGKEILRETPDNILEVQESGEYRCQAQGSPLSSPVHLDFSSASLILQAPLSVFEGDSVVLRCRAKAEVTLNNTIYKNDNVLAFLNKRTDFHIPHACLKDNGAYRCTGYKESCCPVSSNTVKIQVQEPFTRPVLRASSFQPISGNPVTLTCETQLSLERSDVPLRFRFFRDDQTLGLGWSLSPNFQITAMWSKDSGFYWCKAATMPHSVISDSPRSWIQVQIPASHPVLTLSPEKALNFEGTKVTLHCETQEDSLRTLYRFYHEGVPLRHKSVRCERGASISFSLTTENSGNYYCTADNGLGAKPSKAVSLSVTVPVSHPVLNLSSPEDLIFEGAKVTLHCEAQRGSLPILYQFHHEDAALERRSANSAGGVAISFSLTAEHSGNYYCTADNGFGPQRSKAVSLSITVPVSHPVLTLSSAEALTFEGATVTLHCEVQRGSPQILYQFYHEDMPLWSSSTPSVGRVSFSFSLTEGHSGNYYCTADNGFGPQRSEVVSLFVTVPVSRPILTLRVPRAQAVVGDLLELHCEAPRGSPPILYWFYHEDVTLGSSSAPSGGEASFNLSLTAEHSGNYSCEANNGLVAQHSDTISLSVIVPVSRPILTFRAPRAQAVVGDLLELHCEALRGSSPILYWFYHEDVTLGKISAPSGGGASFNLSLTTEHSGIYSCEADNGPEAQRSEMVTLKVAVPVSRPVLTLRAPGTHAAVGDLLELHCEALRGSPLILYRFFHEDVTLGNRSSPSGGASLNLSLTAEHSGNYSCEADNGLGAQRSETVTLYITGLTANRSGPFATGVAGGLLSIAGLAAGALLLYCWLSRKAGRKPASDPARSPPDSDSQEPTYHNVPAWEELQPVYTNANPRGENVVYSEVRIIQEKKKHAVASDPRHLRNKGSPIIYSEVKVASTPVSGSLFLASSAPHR
Source text: as §1

B1: 9D12 human monoclonal antibody (antibody, V domains shown)
VH: EVQLLESGGGLVQPGGSLRLSCAASGFTFSSSAMSWVRQAPGKGLEWVSSISGSGDTTYYADSVKGRFTISRDNSKNTLYLQMNSLRVEDAALYYCAANWGAAFDIWGQGTMVTVSS
VL: EIVLTQSPATLSLSPGERATLSCRASQSVSSYLAWYQQKPGQAPRLLIYDASNRATGIPARFSGSGSGTDFTLTISSLEPEDFAVYYCQQRSNWPRWTFGQGTKVEIK
notes: Purified from a hybridoma of a HuMAb Mouse; Human IgG (captured and detected with anti-human IgG) with a kappa light chain (VK L6); also called anti-IRTA-2 HuMAb 9D12
Question: Does B1 bind [1]?
Answer: no binding (tested: 10 µg/ml)

Question: Does B1 bind [2]?
Answer: no binding (tested: 10 µg/ml)

Question: And the Kd [3]?
Answer: 2.1 nM

Question: And the koff [3]?
Answer: 6.9e-05 s⁻¹

Question: And the kon [3]?
Answer: 34000 M⁻¹ s⁻¹

Question: Does B1 bind [4]?
Answer: binds

B2: 8A1 human monoclonal antibody (antibody, V domains shown)
VH: QMQLVQSGAEVKKPGASVKVSCKASGYTFISYDINWVRQATGQGLEWMGWMHPNSGNTGYAQKFQGRVTMTRNTSISTAYMELSSLRSEDTAVYYCARGRGITMVRGGIIYYGMDVWGQGTTVTVSS
VL: AIQLTQSPSSLSASVGDRVTITCRASQGISSALAWYQQKPGKAPKLLIYDASSLESGVPSRFSGSGSGTDFTLTISSLQPEDFATYYCQQFNSYPHTFGQGTKLEIK
notes: Purified from a hybridoma of a KM Mouse; Human IgG (captured and detected with anti-human IgG) with a kappa light chain (VK L18); also called anti-IRTA-2 HuMAb 8A1
Question: How did the Kd [3] turn out when B2 was run?
Answer: 20 nM

Question: What about the koff [3] of the same binder?
Answer: 0.00011 s⁻¹

Question: And the kon [3]?
Answer: 5800 M⁻¹ s⁻¹
